According to the DeepSol protein solubility set:

test: soluble on expression in E. coli; label from the status in PepcDB or PDB records

Soluble on expression in E. coli, not soluble:
MGSDKIHHHHHHMSALYQALPAVDKLLKTPQGEQLVAEFGHSATVNMCRDLLQQAREHIKRHENLPHFLQNTDATFQHLKEQLLLQQQVNIKTVHNLTGTVLHTNLGRALWSPAAQQAALDAMQGNVALEYDLSAGERSHRDNYISALMQQLTGAEAACVVNNNAAAVLLMLATFAQGKEVIISRGELIEIGGAFRIPDIMAQAGCKLVEVGTTNRTHLKDYRNAINENTAFLMKVHSSNYQICGFTHSVDEQELADLGKEFGIPVITDLGSGALMDLKQFGLPEEPTVQEKLQHGVDLISFSGDKLLGGPQAGIIVGKKALIQQLQAHPLKRVLRCDKVTLAGLEATFRLYLQPEKITEKLTALLLLTQPMERLQAQAEQLKVRLENRLNTNYVIAIEPSEAQIGSGSQPLARIPSVAVTIAPASEKTPAKTTALFARLLALPQPVIGRIERDKIWLDLHSLASLDRLLNSLETL
MGSDKIHHHHHHMSANRLPVTVVTGFLGSGKTTLLRHLLREGNQRLAVVVNEFGTVGLDGDLLKNCGLCPDDEVDERIVELNNGCLCCTVQEDFLPAMEALLLRSNQLDGIIIETSGLALPKPLLQALNWPAIRNKVFINGVVTLVDGYALSNGSPVSDLKSINEQMTNDNSIDHITPIDELFRDQLISADLVLVSRSDLLSAKDFLFVEEEVKKRGNSNANVLPISNGIIEPSVILGLCKEQNNIYRLDQNNQNQNQNQNHDHDHDHDHDHDHVDVISDHLRMETPIDQDVLREMFLRLVPEYQILRVKGKCWIEGKALPLQIQMVGPRFNSWFEAANENAWQPRQSGIDIVFLSLREGVKEAVVNSLCISTRIK
MGSDKIHHHHHHMSAPLLSVRDLSVAFHQGESQSLAVDHVSFDIAPGEILALVGESGSGKSVSAASILKLLPYPAASHPSGQILFDGRDLLTLSEPALRAVRGNDITMIFQEPMTSLNPLHSIEQQIGEILELHQSLTGDAARKRTLELLLQVGIREPEKRLSAFPHELSGGQRQRVMIAMALANRPKLLVADEPTTALDVTVQAQILELLAGLKREHGMSMLFITHDLGIVRKFADRVCVMTGGKIVESGPVEAIFANPQHAYTRKLLASEPRGVPPETDLAKPVVMEGQEIRVWFPIKAGFLRRVVDNVKAVDGVDLTLRAGQTLGVVGESGSGKTTLGLALARLISSRGRIGFLGKNIDGYSFKQMRPLRDRLQVVFQDPFGALSPRMSVGDIIAEGLRVHERGLTAAERDRRVCWALEEVGLDIATRWRYPHEFSGGQRQRIAIARAMVLKPRFVMLDEPTSALDMTVQAQVVDLLRDLQSRHDLAYLFISHDLKVVKALANDIIVMRSGKVVEQGPAQEVFTAPKQDYTKALLAAAFDLKAMNIGGVSQ
MGSDKIHHHHHHMSARNETGYERVLVPVGDKSDPNMLTELSSILVDPRRGAVRFTHVTTDRSFVGSQENWRTGSDSVAESQHTLREEGIESTGTIRTASSALDGILEEAEEYEADAILIGWTDKDSVSSLVDKLLRKAGCDVIVFSADRDPIDTDSILVPVVVKPDANRLQMLAIMSQRTGASITFTYVTGDEGTDEEGRGLLDQSAERLAEYGVQAETELKSASSAVDALGQLSEDYDVMVIGTSRGWWLRKTLFGRKTDKIAQEAQCSLLMHKWQGEVPPES
MGSDKIHHHHHHMSDEKKSTDIDLKNLKAGGFIKERGKDLFTVRLRVPGGRMPVARLKKIAEVAEKYGQGMVHLSVRQSVELININFRDFDAVVAELGEGTQKVASCGARVRVPTACGGCEYNPNGLVDTQKSALEVDEKLFGTSTGHHKFKVGFAGCPFDCPKSATNDVGFQGAIWPVLYADECIGCGLCDKSCTEDAIVMGDDGKPRFIPENCLYCGDCLKVCPSEAWRAEKKGYTVRIGGKWGRRPLVGTLFAEFLPEEQVFDFIAAVLDWYKEKAEGQGRIRLGDVIRAEGPDALLGYLRERFPAAVVDATIPPQRIATQIGKEKRVP
MGSDKIHHHHHHMSDIELLETLAGTDQPRVMATIIHVEGSSYRKEGAMMLFQEDGTQVGLLSGGCLETDLTIKAQKVWQEQLPRTVVYDLSSEDDLSWGQGSGCNGTISVLLEPVDLKLRQHLKRVYDYLCAGKSVFHVKKLSTSGAVLEYAFILDESVYFGEWHSGHPVEWIRKIDENEEPLMFTHIYSPKERLIIFGAGPDVPPLVTFASNVGFYTVVTDWRPNQCEKHFFPDADEIIVDFPADFLRKFLIRPDDFVLIMTHHFQKDQEILHFLLEKELRYIGILGSKERTRRLLQNRKPPDHLYSPVGLSIDAQGPEEIAISIVAQLIQLIRSRKQASSPFSYLFQPESCKH
MGSDKIHHHHHHMSDITHTGEHQALVVGATGIIGSAILHRLGAAEGWTAIGLSRSRRVAEGRARMLEVDLLDPQDCARKLGALNRITHIFYAAYQARPSRAEEVAPNVQMLRNVVDAVSGRARGLKKIVLITGAKFYGIQWGRVKTPMKETDARQLPPNFYYDQEDFLRDAQRQADWHWCNLIPPFVSGYSVGNPMNLVMAIGVFASLSRELNLPLRFPGLPGAWSALQQIADAEQIAAAAHWAATSPAANNEAFNVTNGDPIRWENFWPAVAGHFGMRLEAPKTLPLGRLMADNEAAWARMVERYRLQAASIAKLVDWNWADYMFRMEYDVLMETGKIRRAGFQDCVDTTERFLARFRQLQQQQIIPR
MGSDKIHHHHHHMSDLPERLHDIIRRRNMVLGPGYQFSETIPVEFVSSFGAHLIDSDGNDYLDAFNNVQGVGHAHRHVADAVARQIAAINTDTRYPQEALVAYAERLLATFPAELSKLSLPCTGSEANDLAVRVARYHTGGEGIIVTRWAFHGRTREVASFSPMLGAGSPLGPNVRLIAAPDPRFCGPQQSLENYMRDQVRSAIVDLERHGYRLAALVADSAFTSDGIFTHPVGFLQAMVDEVHAAGGLHIADEVQSGFAQLGDSMWGFSRHGVVPDIVTMGKAIGNGFPISGVVFRPEVSDEFGQKVSYFNTLGGRSLSIAAASAVLDVFEQENVRERVAVNGAALQSGLETLARESPYVAEIRGSGLYLGVEIVKDRETLEPDPIRCESIIKDLRDRRVLISRTGSSGNVLKVRPPVAFTAADVSRFLETFAIVAKQRL
MGSDKIHHHHHHMSDRNTSNSLTLKERMLSAGAGSVLTSLILTPMDVVRIRLQQQQMIPDCSCDGAAEVPNAVSSGSKMKTFTNVGGQNLNNAKIFWESACFQELHCKNSSLKFNGTLEAFTKIASVEGITSLWRGISLTLLMAIPANMVYFSGYEYIRDVSPIASTYPTLNPLFCGAIARVFAATSIAPLELVKTKLQSIPRSSKSTKTWMMVKDLLNETRQEMKMVGPSRALFKGLEITLWRDVPFSAIYWSSYELCKERLWLDSTRFASKDANWVHFINSFASGCISGMIAAICTHPFDVGKTRWQISMMNNSDPKGGNRSRNMFKFLETIWRTEGLAALYTGLAARVIKIRPSCAIMISSYEISKKVFGNKLHQ
MGSDKIHHHHHHMSDSIYSIGTQGQPWTDEDKDLWLSKQVIKRSYQDEVLSKFESVTSSFDMIQYGSLSIDESRYPLYAMRSKNWQSKNKTVLVTGGVHGYETSGVQGAIRFLETSAKDFSQRFNIIVVPCVSPWGYETINRWNNEAIDPNRSFYLDSPAQESAALMSFINELDVNIAMHIDLHETTDTDNSEFRPALAARDAIEQKNWNIPDGFYLVGDSTKPAADFQGAINQAVAKVTHIAPEDSNGKLIGVDIEQFGVINYAGRELGLCMGLTDAPYVTTTEVYPDSPLVDDENCITAQVAAISAAITFI
MGSDKIHHHHHHMSEEKNTAIDLKNLKAGGFIKERGKDLFTVRLRVPGGRLPVGRLKKIAEVAEKYGQGMVHLSVRQSVELININFRDFDAVVAELGEGTQKVASCGARVRVPTACGGCEYNPNGLVDTQKSALEVDEKLFGIPTGHHKFKVGFAGCPFDCPKSATNDVGFQGAVWPVLSADHCIGCGLCAKSCTEDAIAMGDNGKPLFIPANCLYCGDCLKVCPTEAWRAGKKGYTVRIGGKWGRRPLVGTLFAEFLPEDQVVDFIAAVLGWYQEKAEGQGRIRLGDVIRAQGPEALLARLRERFPAFVVNATIAPQAIATQVGKEKQAHDNR
MGSDKIHHHHHHMSEISAIWERIEAWHAANDQTENLNPGATAEALAQAEKDMGLTFPPEMRESLLRHDGSVDDSWPTGELLSLERMADERKVWMDLLQDGTFDGNASHNESSEALQPGWWNPAWIPLDADGGGNGAVIDLAPGPQGTVGQVIDMDHEVGPSGPKYVSLAAYLEAMLERLSEAEE
MGSDKIHHHHHHMSEQNLIEVRDLAVEFVTGDQVNRVVDGVSFDIRKGETLALVGESGSGKSVTAHSILRLLPYPLARHPSGSIRYEGKDLLQQSEKTLQRIRGNRIAMIFQEPMTSLNPLHCIEKQINEILLLHKGLTGKEATARTLELLDMVGIPEPRKRLKALPHELSGGQRQRVMIAMALANEPELLIADEPTTALDVTVQLKILELLKELQARMGMALLLISHDLNLVRRIAHRVCVMQRGQIVEQAECATLFSSPQHHYTQMLINAEPSGLPAHNPVGAPLLEVDDLKVWFPIKKGFLQRTVDHVKAVDGVNFSLPQGQTLGIVGESGSGKSTLGLAILRLISSQGGIRFHGQNLEGLNQKAVRPLRREMQVVFQDPFGSLSPRMCVADIVGEGLRIHRIGTAQEQEAAIIAALEEVGLDPRTRHRYPHEFSGGQRQRIAIARALVLKPALILLDEPTSALDRTVQRQVVELLRNLQQKYNLTYLFISHDLAVVKALSHQLMVIKHGHVVEQGDAQAIFHAPQHPYTRQLLEAAFLEVGG
MGSDKIHHHHHHMSETENNELTAGKQSKEPRSNQKLKLLYLAKILLNNTDANHDITLDEILNKLHAYDVTAARKSLYDDIAQLNDFGIKTQKTQYGRTVHYKVIGRAFELAELKLLVDSVAAAKFITEEKSNELIKKLESLTSRQEAATLQRQVYVAGRVKTMNSDIMKNVDAIHNAIANNSSLSFQYCRWNTKKELEVKHDGARYHVSPWGLLWNDGNYYLIGYDHDTQVKDIRHYRVDKMKNILIENKVREGREKLKKLDIASYGKSKFGMYNGEEIKAEILCKNSAIGVLIDRFGTDVTILKKDEAHSRVFVKVADNKLFIHWIMAMGDNFKIIGPENLVKEVHDELNRLAKQYELAD
MGSDKIHHHHHHMSFEKTSELIEKSRELQEVYQQLVEDVGLDLWRFCRYLTGSPWDGEDLYQETLVKAFGSLYQRWQPTNPKAYLFRIATNTWIDQCRKAKRIVGTVDEMEGPVEEFSNDLELEHAFTRLFTLFPPRQVAVFLLKDVFAFTAEEVASMVRSTSNGVYATSSRVRKKLKETASLEEELSSNGRPSPEQSEVIQQYLEAFNAGDLGKLFDLMSDEVHIDASLGFQEYSKEEMKKGSMQYGLPGFRAEPFVLWGKTVLVVLVDRDAGPLIHDIQFQEIENGKIVYHKSYYFCKEFLMGAAKELQLQVQLDKAAVHWRHSLDEGEL
MGSDKIHHHHHHMSFEQDSTPRGNPVSCESARETNEFSPGKTCIKLMNYRRLTPSMSLLLVFEAAARHESYTRAADELSLSQSAISRQVQTLEDQLGVSLFRREGRSVKLTEVGRRYFVELSGALGRIRGATLQAMSHQAGAGTLRLATLPTFGSKWLLPHLHDFYAAHPGVTVHLHSRIGGIDFHTDDLDAAITVGSGDWPGLHAHRLYNEFLIAIASPDAAGRRKAGPRAPAWAVGQTLLGVTSNQHAWAEWFSHFGLDHREMRIGPSFELTSHLIQAVRAGMGIGLVPKVLVEDELSRNELVSIGDAITSQRSYYLVYPPENDTLPSLVAFREWLLKSC
MGSDKIHHHHHHMSFGVNRDESSAFCQRAFEAENWRLAASAGLAPTLVAQSIDGRCYLSPLLEDGGWQQRYQEVPLSQITCDAAFFTSPGQTHAGSDREPDGLTHTTRLLLDLLLGLQALPVPANVKGFTTQWQDYETALDASQSHWARNPRWQEAYQALAAEFTEVEAAMARLDAMGLSCQYSHRDLTPHNLLCHQGKLFCIDFEYACASHPLWDLAAVLASHNLPGRERRDLMDAYLYAHPQLESSMSSRVVDAVALHWYFGAIWALLMAGQSGDDDYLCWFHRYLQLAKS
